From patent publication US20140087995A1 (published 2014)
Numbered stars: 1 amine (or outer) side, 2 acyl side, 3 side chain; on linkers, the order of the positions; unused ones are H or OH. Bridge positions count the residues as written; N and C are the ends. * marks the point of attachment. C20 diacid = O=C(O)CCCCCCCCCCCCCCCCCCC(=O)*; γGlu = O=C(O)[C@H](CCC(=O)[*:2])N[*:1]

T1: human amylin 3(a) receptor (human calcitonin receptor plus RAMP-3) (human, UniProt P30988 25-474; O60896 24-148, limits assumed)
T1 sequence (looked up) 1: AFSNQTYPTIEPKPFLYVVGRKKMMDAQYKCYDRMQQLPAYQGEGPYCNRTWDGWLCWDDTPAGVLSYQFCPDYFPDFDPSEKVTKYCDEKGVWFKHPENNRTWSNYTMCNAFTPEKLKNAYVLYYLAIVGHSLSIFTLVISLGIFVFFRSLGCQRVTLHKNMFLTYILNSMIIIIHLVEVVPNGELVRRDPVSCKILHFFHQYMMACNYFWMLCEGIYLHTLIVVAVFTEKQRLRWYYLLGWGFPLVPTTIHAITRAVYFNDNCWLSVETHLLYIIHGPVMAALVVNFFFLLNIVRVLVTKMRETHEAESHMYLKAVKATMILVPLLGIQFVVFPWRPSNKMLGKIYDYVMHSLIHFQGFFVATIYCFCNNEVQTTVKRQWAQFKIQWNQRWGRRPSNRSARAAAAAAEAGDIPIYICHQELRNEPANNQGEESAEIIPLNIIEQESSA
T1 sequence (looked up) 2: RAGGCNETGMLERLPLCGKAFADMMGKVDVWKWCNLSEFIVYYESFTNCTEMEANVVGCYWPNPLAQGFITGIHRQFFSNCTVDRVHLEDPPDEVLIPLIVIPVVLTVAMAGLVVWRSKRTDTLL

T2: human calcitonin receptor (human, UniProt P30988 25-474)
T2 sequence (looked up): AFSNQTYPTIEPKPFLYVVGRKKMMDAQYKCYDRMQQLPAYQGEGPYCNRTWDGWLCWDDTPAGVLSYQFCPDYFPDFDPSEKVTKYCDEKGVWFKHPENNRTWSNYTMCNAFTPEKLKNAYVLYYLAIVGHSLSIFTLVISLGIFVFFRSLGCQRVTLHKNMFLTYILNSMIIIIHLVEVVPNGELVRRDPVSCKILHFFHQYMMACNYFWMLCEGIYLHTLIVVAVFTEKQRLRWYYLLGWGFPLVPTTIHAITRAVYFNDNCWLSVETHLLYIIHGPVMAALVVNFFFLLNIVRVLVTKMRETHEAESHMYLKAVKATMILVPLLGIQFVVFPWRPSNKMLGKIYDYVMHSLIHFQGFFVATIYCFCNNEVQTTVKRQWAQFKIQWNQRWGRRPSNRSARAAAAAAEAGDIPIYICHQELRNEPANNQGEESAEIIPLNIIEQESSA


Tests used:
[1] = target: T1, human amylin 3(a) receptor (human …); assay: cell-based or functional assay
[2] = target: T2, human calcitonin receptor; assay: cell-based or functional assay
[3] = target: T1, human amylin 3(a) receptor (human …); assay: SPA competition binding, displacement of 125I-rat amylin from membranes of Amylin 3(a)/CRE-luc BHK cells (Assay V)
Description: The binding assay was performed using scintillation proximity assay (SPA) beads (RPNQ0001) from PerkinElmer and cell membranes from the Amylin 3(a)/CRE-luc cells (as described in Assay (II)) were used. Membranes were prepared in the following way; the cells were rinsed with PBS and incubated with Versene for approximately 5 min before harvesting. The cells were flushed with PBS and the cell-suspension was centrifuged for 5 min at 1000 rpm. Cells were homogenized (ultrathurrax) in a buffer containing 20 mM Na-HEPES and 10 mM EDTA (pH 7.4) and centrifuged at 20.000 rpm for 15 min. The resulting pellet was resuspended, homogenized and centrifuged (20.000 rpm, 15 min) in a buffer containing 20 mM Na-HEPES and 0.1 mM EDTA (pH 7.4, buffer 2). The resulting pellet was resuspended in buffer 2 and protein concentration was measured (BCA protein Assay, Pierce). The homogenate was kept cold during the whole procedure. The membranes were kept at −80° C. until use. The assay was performed in a 384 well Optiplate (PerkinElmer) in a total volume of 40 ul. Membranes were mixed with SPA beads. Final concentration of membranes 35 ng/μL final and SPA beads was 0.05 mg/well. Test-compounds were dissolved in DMSO and further diluted in assay buffer (50 mM Hepes, pH 7.4, 1 mM CaCl2, 5 mM MgCl₂, 0.1% OA and 0.02% Tween20). […] The final mixture was incubated with shaking at 400 rpm for 120 min at 25° C. prior to centrifugation (1500 rpm, 10 min). Samples were analyzed on TopCounter™ (Packard). The IC₅₀ was calculated using (one site binding competition analysis) GraphPad Prism5 as a measure of receptor affinity.

| Binder | Ratio hCT/hAmylin funct. [1] | hAmylin-R funct. EC50 [1] [pM] | hCTR funct. EC50 [2] [pM] | IC50 [3] [pM] |
| --- | --- | --- | --- | --- |
| {C20 diacid-γGlu}-KCNTATCATQRLAEFLRHSSPNFGAIPSSTNVGSRTY-NH2 (disulfide 2-7; SMILES CC[C@H](C)[C@H](NC(=O)[C@H](C)NC(=O)CNC(=O)[C@H](Cc1ccccc1)NC(=O)[C@H](CC(N)=O)NC(=O)[C@@H]1CCCN1C(=O)[C@H](CO)NC(=O)[C@H](CO)NC(=O)[C@H](Cc1c[nH]cn1)NC(=O)[C@H](CCCNC(=N)N)NC(=O)[C@H](CC(C)C)NC(=O)[C@H](Cc1ccccc1)NC(=O)[C@H](CCC(=O)O)NC(=O)[C@H](C)NC(=O)[C@H](CC(C)C)NC(=O)[C@H](CCCNC(=N)N)NC(=O)[C@H](CCC(N)=O)NC(=O)[C@@H](NC(=O)[C@H](C)NC(=O)[C@@H]1CSSC[C@H](NC(=O)[C@H](CCCCN)NC(=O)CC[C@H](NC(=O)CCCCCCCCCCCCCCCCCCC(=O)O)C(=O)O)C(=O)N[C@@H](CC(N)=O)C(=O)N[C@@H]([C@@H](C)O)C(=O)N[C@@H](C)C(=O)N[C@@H]([C@@H](C)O)C(=O)N1)[C@@H](C)O)C(=O)N1CCC[C@H]1C(=O)N[C@@H](CO)C(=O)N[C@@H](CO)C(=O)N[C@H](C(=O)N[C@@H](CC(N)=O)C(=O)N[C@H](C(=O)NCC(=O)N[C@@H](CO)C(=O)N[C@@H](CCCNC(=N)N)C(=O)N[C@H](C(=O)N[C@@H](Cc1ccc(O)cc1)C(N)=O)[C@@H](C)O)C(C)C)[C@@H](C)O, also called compound 16) | 6.1 | 363 | 2220 | 894 |
| {C20 diacid-γGlu}-KCNTATCATQRLAEFLRHSSPNFGAIPSSTNVGSHTY-NH2 (disulfide 2-7; SMILES CC[C@H](C)[C@H](NC(=O)[C@H](C)NC(=O)CNC(=O)[C@H](Cc1ccccc1)NC(=O)[C@H](CC(N)=O)NC(=O)[C@@H]1CCCN1C(=O)[C@H](CO)NC(=O)[C@H](CO)NC(=O)[C@H](Cc1c[nH]cn1)NC(=O)[C@H](CCCNC(=N)N)NC(=O)[C@H](CC(C)C)NC(=O)[C@H](Cc1ccccc1)NC(=O)[C@H](CCC(=O)O)NC(=O)[C@H](C)NC(=O)[C@H](CC(C)C)NC(=O)[C@H](CCCNC(=N)N)NC(=O)[C@H](CCC(N)=O)NC(=O)[C@@H](NC(=O)[C@H](C)NC(=O)[C@@H]1CSSC[C@H](NC(=O)[C@H](CCCCN)NC(=O)CC[C@H](NC(=O)CCCCCCCCCCCCCCCCCCC(=O)O)C(=O)O)C(=O)N[C@@H](CC(N)=O)C(=O)N[C@@H]([C@@H](C)O)C(=O)N[C@@H](C)C(=O)N[C@@H]([C@@H](C)O)C(=O)N1)[C@@H](C)O)C(=O)N1CCC[C@H]1C(=O)N[C@@H](CO)C(=O)N[C@@H](CO)C(=O)N[C@H](C(=O)N[C@@H](CC(N)=O)C(=O)N[C@H](C(=O)NCC(=O)N[C@@H](CO)C(=O)N[C@@H](Cc1c[nH]cn1)C(=O)N[C@H](C(=O)N[C@@H](Cc1ccc(O)cc1)C(N)=O)[C@@H](C)O)C(C)C)[C@@H](C)O, also called compound 18) | 4.8 | 154 | 742 | 554 |
| {C20 diacid-γGlu}-KCNTATCATQRLAEFLRHSSPNFGAIPSSTNVGSDTP-NH2 (disulfide 2-7; SMILES CC[C@H](C)[C@H](NC(=O)[C@H](C)NC(=O)CNC(=O)[C@H](Cc1ccccc1)NC(=O)[C@H](CC(N)=O)NC(=O)[C@@H]1CCCN1C(=O)[C@H](CO)NC(=O)[C@H](CO)NC(=O)[C@H](Cc1c[nH]cn1)NC(=O)[C@H](CCCNC(=N)N)NC(=O)[C@H](CC(C)C)NC(=O)[C@H](Cc1ccccc1)NC(=O)[C@H](CCC(=O)O)NC(=O)[C@H](C)NC(=O)[C@H](CC(C)C)NC(=O)[C@H](CCCNC(=N)N)NC(=O)[C@H](CCC(N)=O)NC(=O)[C@@H](NC(=O)[C@H](C)NC(=O)[C@@H]1CSSC[C@H](NC(=O)[C@H](CCCCN)NC(=O)CC[C@H](NC(=O)CCCCCCCCCCCCCCCCCCC(=O)O)C(=O)O)C(=O)N[C@@H](CC(N)=O)C(=O)N[C@@H]([C@@H](C)O)C(=O)N[C@@H](C)C(=O)N[C@@H]([C@@H](C)O)C(=O)N1)[C@@H](C)O)C(=O)N1CCC[C@H]1C(=O)N[C@@H](CO)C(=O)N[C@@H](CO)C(=O)N[C@H](C(=O)N[C@@H](CC(N)=O)C(=O)N[C@H](C(=O)NCC(=O)N[C@@H](CO)C(=O)N[C@@H](CC(=O)O)C(=O)N[C@H](C(=O)N1CCC[C@H]1C(N)=O)[C@@H](C)O)C(C)C)[C@@H](C)O, also called compound 11) | 0.9 | 120 | 112 | 105 |
| {C20 diacid-γGlu}-KCNTATCATQRLAEFLRHSSPNFGAIPSPTNVGSNTY-NH2 (disulfide 2-7; SMILES CC[C@H](C)[C@H](NC(=O)[C@H](C)NC(=O)CNC(=O)[C@H](Cc1ccccc1)NC(=O)[C@H](CC(N)=O)NC(=O)[C@@H]1CCCN1C(=O)[C@H](CO)NC(=O)[C@H](CO)NC(=O)[C@H](Cc1c[nH]cn1)NC(=O)[C@H](CCCNC(=N)N)NC(=O)[C@H](CC(C)C)NC(=O)[C@H](Cc1ccccc1)NC(=O)[C@H](CCC(=O)O)NC(=O)[C@H](C)NC(=O)[C@H](CC(C)C)NC(=O)[C@H](CCCNC(=N)N)NC(=O)[C@H](CCC(N)=O)NC(=O)[C@@H](NC(=O)[C@H](C)NC(=O)[C@@H]1CSSC[C@H](NC(=O)[C@H](CCCCN)NC(=O)CC[C@H](NC(=O)CCCCCCCCCCCCCCCCCCC(=O)O)C(=O)O)C(=O)N[C@@H](CC(N)=O)C(=O)N[C@@H]([C@@H](C)O)C(=O)N[C@@H](C)C(=O)N[C@@H]([C@@H](C)O)C(=O)N1)[C@@H](C)O)C(=O)N1CCC[C@H]1C(=O)N[C@@H](CO)C(=O)N1CCC[C@H]1C(=O)N[C@H](C(=O)N[C@@H](CC(N)=O)C(=O)N[C@H](C(=O)NCC(=O)N[C@@H](CO)C(=O)N[C@@H](CC(N)=O)C(=O)N[C@H](C(=O)N[C@@H](Cc1ccc(O)cc1)C(N)=O)[C@@H](C)O)C(C)C)[C@@H](C)O, also called compound 37) | 4 | 92 | 372 | 970 |
| {C20 diacid-γGlu}-KCNTATCATQRLAEFLRHSSPNFGAIPSSTNVGHNTY-NH2 (disulfide 2-7; SMILES CC[C@H](C)[C@H](NC(=O)[C@H](C)NC(=O)CNC(=O)[C@H](Cc1ccccc1)NC(=O)[C@H](CC(N)=O)NC(=O)[C@@H]1CCCN1C(=O)[C@H](CO)NC(=O)[C@H](CO)NC(=O)[C@H](Cc1c[nH]cn1)NC(=O)[C@H](CCCNC(=N)N)NC(=O)[C@H](CC(C)C)NC(=O)[C@H](Cc1ccccc1)NC(=O)[C@H](CCC(=O)O)NC(=O)[C@H](C)NC(=O)[C@H](CC(C)C)NC(=O)[C@H](CCCNC(=N)N)NC(=O)[C@H](CCC(N)=O)NC(=O)[C@@H](NC(=O)[C@H](C)NC(=O)[C@@H]1CSSC[C@H](NC(=O)[C@H](CCCCN)NC(=O)CC[C@H](NC(=O)CCCCCCCCCCCCCCCCCCC(=O)O)C(=O)O)C(=O)N[C@@H](CC(N)=O)C(=O)N[C@@H]([C@@H](C)O)C(=O)N[C@@H](C)C(=O)N[C@@H]([C@@H](C)O)C(=O)N1)[C@@H](C)O)C(=O)N1CCC[C@H]1C(=O)N[C@@H](CO)C(=O)N[C@@H](CO)C(=O)N[C@H](C(=O)N[C@@H](CC(N)=O)C(=O)N[C@H](C(=O)NCC(=O)N[C@@H](Cc1c[nH]cn1)C(=O)N[C@@H](CC(N)=O)C(=O)N[C@H](C(=O)N[C@@H](Cc1ccc(O)cc1)C(N)=O)[C@@H](C)O)C(C)C)[C@@H](C)O, also called compound 17) | 8.8 | 268 | 2350 | 878 |
